Reference: patent US20110082078

Tested on: ZFP-TF 14172-p65 (rat GDNF activator) (synthetic)
Experiment: cell_activity
Conditions: GDNF mRNA increase vs AAV-GFP in rat eye; also activates in rat striatal neurons (FIG. 5)

GGGGGCGCGGAACCGGGA (double strand) [rat GDNF target site (SEQ ID NO:55)]
activity: 5 fold
